This note sets out measurements from patent publication US20210317201A1 (Boehringer Ingelheim, published 2021).

Substitutions are numbered along the chain they refer to. Where “and” joins values, the source holds several entries; their conditions need not be identical. Equal entries are not always repeated. Bounds are passed on as bounds.

Experiment [1] concerns the target T1, recombinant human IL-23 (human, UniProt P29460 23-328).
T1 construct: also called Human recombinant IL-23
T1 sequence 1: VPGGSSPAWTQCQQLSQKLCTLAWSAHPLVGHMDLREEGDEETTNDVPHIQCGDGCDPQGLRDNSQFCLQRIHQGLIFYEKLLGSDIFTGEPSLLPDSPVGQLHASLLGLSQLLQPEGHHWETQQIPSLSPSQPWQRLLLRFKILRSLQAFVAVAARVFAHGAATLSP
T1 sequence 2: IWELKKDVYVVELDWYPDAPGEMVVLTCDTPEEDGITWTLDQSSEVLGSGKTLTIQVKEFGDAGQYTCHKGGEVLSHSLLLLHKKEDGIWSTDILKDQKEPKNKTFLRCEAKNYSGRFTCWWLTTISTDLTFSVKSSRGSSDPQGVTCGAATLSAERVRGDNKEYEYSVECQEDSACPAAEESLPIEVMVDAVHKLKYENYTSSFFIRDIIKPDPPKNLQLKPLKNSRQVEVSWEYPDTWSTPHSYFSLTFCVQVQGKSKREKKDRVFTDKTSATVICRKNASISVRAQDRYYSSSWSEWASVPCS
As to the kind of experiment: BLI, Fortebio Octet; hybridoma-derived antibody. Here is the method:
Kinetics and binding affinities were measured using the Fortebio OCTET® (Fortebio, Menlo Park, Calif.) using material generated from hybridoma following single column purification.

Experiment [2] has as its target T1, recombinant human IL-23. Description: cell-based or functional assay.
The target of experiment [3] is T2, natural human IL-23 from activated THP-1 cells (human, UniProt P29460 23-328).
T2 sequence 1: T1 sequence 1
T2 sequence 2: T1 sequence 2
As to the kind of experiment: cell-based or functional assay.

B1: 18C4 (antibody, V domains shown)
VH: EVQLQQSGPEVVKPGASVKMSCKASGYTFTSSVIHWVKQKAGQGLEWIGYINPYNDGTKYNEKFKGKATLTSDRSSSTAYMELSSLTSEDSAVYYCTRRLDEAYWGQGTLVTVSA
VL: DIVMTQSPATLSVTPGDRVSLSCRASQSISEYLHWYQQKSHESPRLLIKYASQSISGIPSRFSGSGSGSDFTLSINSVEPEDVGVYYCQNGHSFPFTFGSGTKLEIK
notes: Mouse monoclonal antibody from hybridoma; also called 18C4vk; 18C4vh
On to B1, for which, in experiment [1], the dissociation constant Kd is 0.00557 nM, the koff was 2.14e-06 s⁻¹ and the kon turned out to be 384000 M⁻¹ s⁻¹. In addition, the “IC50, IL-23 stimulated IL-17 production from mouse splenocytes” value (from here on “IC50, IL-23 stimulated IL-17 production”) in experiment [2] came to 0.471 nM.

B2: Chimeric 22E2 (antibody, V domains shown)
VH: B1 VH with V11L, V33I, K40R, A41P, N55D, G57V, R74K, T97A, L100W, A103S
VL: B1 VL with E31V, H41P
As for B2, the “IC50, IL-23 stimulated IL-17 production” value in experiment [2] is 0.1 nM.

B3: 24A5 (antibody, V domains shown)
VH: B1 VH with V11L, S31T, V33I, I34M, A41P, N55D, G57V, R74K, T97V, L100W
VL: B1 VL with D17N, E31D, D70N
notes: Mouse monoclonal antibody from hybridoma; also called 24A54vk; 24A5vh
B3: in experiment [1], the Kd is 0.0226 nM, the koff came out at 4.57e-06 s⁻¹ and the on-rate (kon) stood at 202000 M⁻¹ s⁻¹. In addition, in experiment [2], the “IC50, IL-23 stimulated IL-17 production” value is 0.022 nM and 0.037 nM. For the same molecule, the “IC50, IL-23 stimulated IL-17 production” value in experiment [3] was 0.085 nM and 0.031 nM.

B4: Chimeric 24A5 (antibody, V domains shown)
VH: B1 VH with V11L, S31T, V33I, I34M, A41P, N55D, G57V, R74K, T97V, L100W
VL: B1 VL with D17N, E31D, D70N
In the case of B4, the “IC50, IL-23 stimulated IL-17 production” value was 0.404 nM in experiment [2]; 0.095 nM and 0.102 nM in experiment [3].

B5: 18E5 (antibody, V domains shown)
VH: EVQLQQSGPELVKPGAAVKMSCKASGYTFTRYLIHWVKQKPGQGLEWIGYINPYNDGTKYNEKFKGKATLTSDKSSSTAYMELSSLTSEDSAVYYCTSNWDLDYWGQGTTLTVSS
VL: B1 VL with E31D, H34Y, Y50F, S63T, N76D, E81D, Y86F, Y87F, S100G
notes: Mouse monoclonal antibody from hybridoma; also called 18E5vk; 18E5vh
Regarding B5, in experiment [1], the equilibrium dissociation constant (Kd) was 0.00793 nM, the off-rate (koff) was 2.61e-06 s⁻¹ and the kon worked out at 329000 M⁻¹ s⁻¹. The “IC50, IL-23 stimulated IL-17 production” value in experiment [3] is 0.009 nM and 0.013 nM.

B6: 31H9 (antibody, V domains shown)
VH: B5 VH with A17S, I34M, K59N, T97S, S98L, L102Y, D103A, T110L, L111V, S115A
VL: B1 VL with E31D, F96Y, S100G
notes: Mouse monoclonal antibody from hybridoma; also called 31H9vk; 31H9vh
B6: in experiment [1], the Kd worked out at 0.0115 nM, the off-rate (koff) was determined as 3.45e-06 s⁻¹ and the on-rate (kon) came out at 299000 M⁻¹ s⁻¹. Further, in experiment [2], the “IC50, IL-23 stimulated IL-17 production” value is 0.96 nM. Besides, the “IC50, IL-23 stimulated IL-17 production” value in experiment [3] was found to be 2 nM.

B7: 20E8 (antibody, V domains shown)
VH: B1 VH with V11L, I34M, K59Q, R74K, S75F
VL: B1 VL
notes: Mouse monoclonal antibody from hybridoma; also called 20E8vk; 20E8vh
Turning to B7, in experiment [1], the equilibrium dissociation constant (Kd) came out at 0.638 nM, the koff turned out to be 0.000269 s⁻¹ and the association rate constant (kon) stood at 421000 M⁻¹ s⁻¹. The “IC50, IL-23 stimulated IL-17 production” value in experiment [3] is 0.438 nM and 0.561 nM.

B8: 18D3 (antibody, V domains shown)
VH: B5 VH with A17S
VL: B1 VL with E31D, H34Y, Y50F, S63T, N76D, E81D, Y86F, Y87F, S100G
notes: Mouse monoclonal antibody from hybridoma; also called 18D3vk; 18D3vh
For the molecule B8, in experiment [1], the Kd was determined as 0.00678 nM, the koff turned out to be 2.16e-06 s⁻¹ and the kon amounted to 319000 M⁻¹ s⁻¹. In addition, in experiment [2], the “IC50, IL-23 stimulated IL-17 production” value turned out to be 0.234 nM.

B9: 22E2 (antibody, V domains shown)
VH: B1 VH with V11L, V33I, K40R, A41P, N55D, G57V, R74K, T97A, L100W, A103S
VL: B1 VL with E31V, H41P
notes: Mouse monoclonal antibody from hybridoma; also called 22E2vk; 22E2vh
As to B9, in experiment [1], the dissociation constant (Kd) was determined as 1.02 nM, the dissociation rate constant (koff) turned out to be 0.000353 s⁻¹ and the kon was found to be 346000 M⁻¹ s⁻¹. Also, in experiment [2], the “IC50, IL-23 stimulated IL-17 production” value is 0.061 nM and 0.13 nM.

B10: 15C11 (antibody, V domains shown)
VH: EVQLQQSGPVLVKPGASVKMSCKASGYTFTDYYMNWVKQSHGKSLEWIGVIIPYNGGTSYNQKFKGKATLTVDKSSSTAYMELNSLTSEDSAVYYCARDGHRWYFDVWGTGTTVTVSS
VL: DVVMTQTPLSLPVSLGDQASISCRSSQSLVHSNGNTYLHWYLQKPGQSPKLLIYKVSNRFSGVPDRFSGSGSGTDFTLKINRVEAEDLGVYFCSQSTHVPYTFGGGTQLEIK
notes: Mouse monoclonal antibody from hybridoma; also called 15C11vk; 15C11vh
Consider B10, for which, in experiment [1], the Kd stood at 0.026 nM, the koff stood at 1.07e-05 s⁻¹ and the kon is 411000 M⁻¹ s⁻¹. Moreover, the “IC50, IL-23 stimulated IL-17 production” value in experiment [2] worked out at 0.126 nM. Besides, the “IC50, IL-23 stimulated IL-17 production” value in experiment [3] stood at 0.232 nM.

B11: 43F5 (antibody, V domains shown)
VH: EVQLQQSGPELVKPGASVKISCRASGYSFTGYYMNWVKQSPEKSLEWIGEIIPTTGGTSYNQKFKAKATLTVDKSSSTAYMQLKSLTSEDSAVYYCARESGGFYWYFDVWGTGTTVTVSS
VL: B10 VL with T7S, Q43L, N81S, Q108K
notes: Mouse monoclonal antibody from hybridoma; also called 43F5vk; 43F5vh
Turning to B11, in experiment [1], the Kd is 0.0346 nM, the koff is 5.96e-06 s⁻¹ and the kon was found to be 172000 M⁻¹ s⁻¹. For the same molecule, the “IC50, IL-23 stimulated IL-17 production” value in experiment [3] is 8 nM.

B12: 73H10 (antibody, V domains shown)
VH: EVQLQQSGPELVKPGASVKMSCKASGYTFTRYVMHWVKQKPGQGLEWIGYINPYNDVTKYNEKFKGKATLTSDRSSSTAYMKLSSLTSEDSAVYYCARNWDVPYWGQGTLITVSA
VL: DIQMTQSPVFLSASVGETVTITCRASENIDSYLAWYQQKQGKSPQLLVFAARNLADGVPSRFSGSGSGTQYSLKINRMQSEDVARYYCQHYYSTPFTFGSGTKLEIE
notes: Mouse monoclonal antibody from hybridoma; also called 73H10Vk; 73H10VH
As for B12, in experiment [1], the Kd amounted to 0.0992 nM, the off-rate constant (koff) came to 5.24e-06 s⁻¹ and the kon turned out to be 52900 M⁻¹ s⁻¹. For the same molecule, the “IC50, IL-23 stimulated IL-17 production” value in experiment [2] amounted to 1.41 nM.

B13: 74H3 (antibody, V domains shown)
VH: B12 VH with V33L, V57G, K63R, R74K, K82E, I111V
VL: DIQMTQSPASLSASVGETVIFTCRASENIDSYLAWYQQKQGKSPQLLVYAATNLADGVPSRFSGSGSGTQYSLKINSLQSEDVARYYCLHYYSTPFTFGSGTELEIK
notes: Mouse monoclonal antibody from hybridoma; also called 74H3Vk; 74H3VH
B13: in experiment [1], the Kd came to 0.0683 nM, the koff amounted to 2.09e-06 s⁻¹ and the on-rate constant (kon) was 30600 M⁻¹ s⁻¹. Moreover, the “IC50, IL-23 stimulated IL-17 production” value in experiment [2] stood at 1.35 nM.

B14: 27G8 (antibody, V domains shown)
VH: QVQLQQSDAELVKPGASVKISCKVSGYTFTDHTIHWMKQRPEQGLEWIGYIYPRDGYPKFNEKFKGKATLTADKSSSTAYMQLNSLTSEDSAVYFCARRPPYYAMDYWGQGTSVAVSS
VL: DIVLTQSPASLAVSLGQRATISCRASKSVSTSGYSYIHWYQQKPGQPPKFLIYLASNLDSGVPARFSGSGSGTDFTLNIHPVEEEDAATYYCQHSRELPYTFGGGTKLEIK
notes: Mouse monoclonal antibody from hybridoma; also called 27G8vk; 27G8vh
In the case of B14, in experiment [1], the Kd was found to be 0.0272 nM, the koff worked out at 4.26e-06 s⁻¹ and the on-rate constant (kon) is 157000 M⁻¹ s⁻¹. Besides, the “IC50, IL-23 stimulated IL-17 production” value in experiment [2] was 0.235 nM. In experiment [3], the “IC50, IL-23 stimulated IL-17 production” value was found to be 5 nM.

B15: 26F7 (antibody, V domains shown)
VH: EVQLQQSGPELVKPGASVKISCKASGYTFTDYYMNWVRQSHGESLEWIGDFNHNNDVITYNPKFKGKVTLTVEKSSTTAYMELRSLSSEDSAVYYCARGLRGYYAMDYWGQGTSVTVSS
VL: B14 VL with S30R, T31F, G33D, S35F, I37M, F50L, D59E, H94N
notes: Mouse monoclonal antibody from hybridoma; also called 26F7Vk; 26F7VH
With B15, in experiment [1], the Kd turned out to be 0.0281 nM, the koff was determined as 1.34e-05 s⁻¹ and the on-rate (kon) is 476000 M⁻¹ s⁻¹. The “IC50, IL-23 stimulated IL-17 production” value in experiment [2] was found to be 0.027 nM.

B16: 2D1 (antibody, V domains shown)
VH: QVQLKESGPGLVAPSQSLSITCTVSGFSLTTYAISWVRQSPGKGLEWLGVIWTGGGTKYNSALKSRLSISKDNSKSQVFLKMNSLQTDDTARYYCARKDYNYGGAMDYWGQGTSVTVSS
VL: DIVLTQSPGSLAVSLGQRATISCRTSESVYSYGQNFIHWYQQKPGQPPKLLIYRASNLESGIPARFSGSGSRTDFTLTMNPVEADDVATYYCQQTNEDPYTFGGGTKLEIR
notes: Mouse monoclonal antibody from hybridoma; also called 2D1vk; 2D1vh
Take B16: in experiment [1], the Kd is less than 0.001 nM and the koff was less than 1e-06 s⁻¹. Moreover, in experiment [3], the “IC50, IL-23 stimulated IL-17 production” value is 2.34 nM and 1.91 nM and 1.6 nM.

B17: 9D12 (antibody, V domains shown)
VH: B16 VH with G10V, T30N, T31N, Y32F, S40P, V50A, K58N, A96V, N101S
VL: DIALTQSPASLAVSLGQRATISCRASETINFYGTSFMHWYQQKPGQSPKLLIYRASNLESGIPARFSGSGSRTDFTLTINPVEADDVATYYCQQTNEDPYTFGGGTKLEIK
notes: Mouse monoclonal antibody from hybridoma; also called 9D12-Vk; 9D12VH
Consider B17, for which, in experiment [1], the Kd is less than 0.001 nM and the off-rate (koff) is less than 1e-06 s⁻¹. Further, the “IC50, IL-23 stimulated IL-17 production” value in experiment [2] is 0.059 nM. In addition, the “IC50, IL-23 stimulated IL-17 production” value in experiment [3] was 0.281 nM and 0.138 nM.
